Data taken from the RNAGym collection of RNA variant scans (doi:10.7554/elife.80360).

B1: Twister Ribozyme (parent)
chain: AACACUGCCAAUGCCGGUCCCAAGCCCGGAUAAAAGUGGAGGGGGCGG

Variants of: B1
Experiment: self-cleavage, relative activity (ratio to wild type); higher = more cleavage; co-transcriptional

Going from G28U C46G to G29A A40U, the self-cleavage falls from 0.765 to 0.204.

First: G29A A40G
Second: G29A A40C
The self-cleavage of the first is lower: 0.146 for the first, 0.176 for the second.

Compared with G28C G48A, G28C A32U is higher in self-cleavage: 0.405 for the first, 0.813 for the second.

First: G28C A32G
Second: C27A G43A
The self-cleavage of the first is higher: 0.734 for the first, 0.148 for the second.

First: C27A G43C
Second: A30G A35G
The self-cleavage of the first is lower: 0.136 for the first, 0.869 for the second.

Going from A30C G42C to A30C G43C, the self-cleavage falls from 0.111 to 0.103.

First: A30C G43U
Second: A30C A32U
The self-cleavage of the first is lower: 0.121 for the first, 0.9 for the second.

First: A30C A32C
Second: G29U A30G
The self-cleavage of the first is lower: 0.758 for the first, 1 for the second.

Compared with G28U G39U, G29A G39U is higher in self-cleavage: 0.177 for the first, 0.232 for the second.

First: A30G G41C
Second: A30G G42U
The self-cleavage of the first is lower: 0.37 for the first, 0.377 for the second.

Going from G29C G44U to C27G A40U, the self-cleavage falls from 0.777 to 0.107.

Going from C27G A40C to C27G A40G, the self-cleavage falls from 0.119 to 0.062.

First: C27U G39U
Second: G28A G45A
The self-cleavage of the first is lower: 0.168 for the first, 0.653 for the second.

Going from G28A G45U to G28A G45C, the self-cleavage falls from 0.375 to 0.185.

First: A30G A34U
Second: A30G A34G
The self-cleavage of the first is higher: 0.86 for the first, 0.761 for the second.

First: A30G A34C
Second: C27A G47A
The self-cleavage of the first is higher: 0.497 for the first, 0.238 for the second.

Compared with C27A G47U, G29A G42A is higher in self-cleavage: 0.186 for the first, 0.284 for the second.

First: G29A G42U
Second: C27U A30C
The self-cleavage of the first is lower: 0.323 for the first, 0.701 for the second.

First: G29U G48U
Second: G29U G48A
The self-cleavage of the first is lower: 0.867 for the first, 0.905 for the second.

First: A30C A35U
Second: G29U A33G
The self-cleavage of the first is higher: 0.912 for the first, 0.747 for the second.

Going from G29C G48U to A30C A34C, the self-cleavage falls from 0.642 to 0.0893.

Compared with A30C A34U, G29C G43U is lower in self-cleavage: 0.314 for the first, 0.156 for the second.

Going from A30G A33C to A30G A33U, the self-cleavage falls from 1.06 to 0.919.

First: G29A A32U
Second: G29A A32C
The self-cleavage of the first is higher: 0.949 for the first, 0.916 for the second.

Compared with C27A G44U, C27A G44A is higher in self-cleavage: 0.41 for the first, 0.648 for the second.

First: C27A G44C
Second: G28C G39C
The self-cleavage of the first is higher: 0.298 for the first, 0.159 for the second.

First: C27U A35C
Second: C27U G48A
The self-cleavage of the first is higher: 0.641 for the first, 0.633 for the second.

Going from C27U G48U to G28A G41A, the self-cleavage falls from 0.942 to 0.385.

Going from G29C G45U to G29C G45A, the self-cleavage rises from 0.362 to 0.667.

First: A30C G39U
Second: A30C G39C
The self-cleavage of the first is lower: 0.106 for the first, 0.107 for the second.

Going from G29A C46A to G29A C46U, the self-cleavage rises from 0.922 to 0.948.

Compared with C27A C46G, C27A C46U is higher in self-cleavage: 0.466 for the first, 0.639 for the second.

First: C27U U31G
Second: C27U U31A
The self-cleavage of the first is lower: 0.723 for the first, 0.792 for the second.

First: A30G C46G
Second: A30G C46U
The self-cleavage of the first is higher: 0.964 for the first, 0.779 for the second.

First: C27A G39A
Second: C27A G39U
The self-cleavage of the first is higher: 0.128 for the first, 0.0773 for the second.

Going from G29U A34C to G29U A34U, the self-cleavage rises from 0.185 to 0.666.

Compared with C27U G45U, A30G U31G is higher in self-cleavage: 0.638 for the first, 1.02 for the second.

Going from A30G U31A to A30C G44C, the self-cleavage rises from 0.744 to 0.874.

First: A30C G44U
Second: G28U G43U
The self-cleavage of the first is higher: 0.793 for the first, 0.285 for the second.

First: G28U G43A
Second: G28U G43C
The self-cleavage of the first is higher: 0.221 for the first, 0.151 for the second.

Compared with A30C G36C, A30C G36U is higher in self-cleavage: 0.0822 for the first, 0.0939 for the second.

Compared with C27U U37A, G28U A32G is higher in self-cleavage: 0.444 for the first, 0.777 for the second.

First: G28U A32U
Second: G28U A32C
The self-cleavage of the first is higher: 0.873 for the first, 0.716 for the second.

Compared with G29U G44U, C27G G48U is lower in self-cleavage: 0.837 for the first, 0.0985 for the second.

First: C27A U37C
Second: C27A U37G
The self-cleavage of the first is higher: 0.136 for the first, 0.0964 for the second.

First: C27A U37A
Second: A30C G45U
The self-cleavage of the first is lower: 0.138 for the first, 0.573 for the second.

Going from G28U G42A to C27A U31C, the self-cleavage rises from 0.26 to 0.495.

Compared with G28A U37C, G28A U37G is lower in self-cleavage: 0.391 for the first, 0.331 for the second.

Going from G29A G38U to G28U A34C, the self-cleavage falls from 0.634 to 0.205.

Compared with G28U A34U, G28A G29A is higher in self-cleavage: 0.585 for the first, 0.898 for the second.

Compared with C27U A34G, G29A G41U is lower in self-cleavage: 0.483 for the first, 0.461 for the second.

Compared with G29A G43U, G29A G43C is lower in self-cleavage: 0.326 for the first, 0.163 for the second.

Compared with G29A G43A, G29C G38U is higher in self-cleavage: 0.195 for the first, 0.627 for the second.

First: G28A G38A
Second: C27U A33U
The self-cleavage of the first is higher: 0.821 for the first, 0.709 for the second.

First: C27U A33G
Second: A30C A33C
The self-cleavage of the first is higher: 0.702 for the first, 0.676 for the second.

First: A30C A33U
Second: G29A A35G
The self-cleavage of the first is higher: 0.766 for the first, 0.657 for the second.

First: C27U A32G
Second: G28A A33G
The self-cleavage of the first is lower: 0.697 for the first, 0.781 for the second.

Compared with G28A A33U, G28A G44A is lower in self-cleavage: 0.707 for the first, 0.702 for the second.

Going from G28A G44C to C27U G36U, the self-cleavage falls from 0.718 to 0.158.

Compared with C27U G36A, C27U G36C is lower in self-cleavage: 0.583 for the first, 0.21 for the second.

Going from C27G U37G to C27G U37C, the self-cleavage rises from 0.0978 to 0.102.

First: A30G G45C
Second: G28A G48A
The self-cleavage of the first is lower: 0.571 for the first, 0.775 for the second.

Going from G29U G41C to A30C G38C, the self-cleavage rises from 0.25 to 0.732.

First: G28U U37C
Second: G28U U37G
The self-cleavage of the first is higher: 0.431 for the first, 0.168 for the second.

First: G28U U37A
Second: A30G G48U
The self-cleavage of the first is lower: 0.348 for the first, 0.96 for the second.

Compared with A30G G48C, A30G A32C is lower in self-cleavage: 1.13 for the first, 0.877 for the second.

Going from G28A G39U to G28C C46G, the self-cleavage rises from 0.16 to 0.565.

Compared with G28C C46U, G28C C46A is lower in self-cleavage: 0.841 for the first, 0.684 for the second.

Compared with G29C A33C, G28C G44A is higher in self-cleavage: 0.545 for the first, 0.782 for the second.

First: C27U G41A
Second: C27U G41U
The self-cleavage of the first is higher: 0.347 for the first, 0.345 for the second.

Going from C27U G41C to G28C A30C, the self-cleavage rises from 0.176 to 0.848.

Compared with G28C A30G, G28U G45U is lower in self-cleavage: 0.77 for the first, 0.375 for the second.

Going from A30G G38C to A30G G38A, the self-cleavage falls from 0.868 to 0.853.

First: G28A A35C
Second: G28A A35U
The self-cleavage of the first is lower: 0.793 for the first, 0.847 for the second.

Going from G28C U37C to C27U G38U, the self-cleavage rises from 0.267 to 0.756.

Going from C27U G38A to C27G A33G, the self-cleavage falls from 0.72 to 0.139.

Compared with A30U A32U, A30U A32C is higher in self-cleavage: 0.879 for the first, 0.945 for the second.

First: G28A G36C
Second: C27G G44C
The self-cleavage of the first is lower: 0.131 for the first, 0.133 for the second.

Compared with C27G G44U, C27G A32G is lower in self-cleavage: 0.0884 for the first, 0.0742 for the second.

Going from G29C A40G to C27A G41A, the self-cleavage falls from 0.157 to 0.119.

Compared with G29U C46G, G29U C46U is higher in self-cleavage: 0.88 for the first, 0.901 for the second.

Compared with G29C G47A, G29C G47C is lower in self-cleavage: 0.397 for the first, 0.222 for the second.

Compared with G29C G47U, G29C G39U is lower in self-cleavage: 0.3 for the first, 0.12 for the second.

With G29C G39A the self-cleavage was 0.143.
